The source of these data is patent US20220098591, “STEM-LOOP COMPOSITIONS AND METHODS FOR INHIBITING VASCULAR ENDOTHELIAL GROWTN FACTOR” (DRIVE THERAPEUTICS LLC, published 2022).

Residue numbers refer to the chain shown, from its start.

As a reminder, the Kd is a measure of binding affinity in units of concentration. Read a low Kd as a tighter complex. One may read the IC50 as the concentration that gives 50% inhibition. Read a low IC50 as greater potency in that assay.

For data set [1], the target named is T1, VEGF-A165 (Homo sapiens).
T1 chain: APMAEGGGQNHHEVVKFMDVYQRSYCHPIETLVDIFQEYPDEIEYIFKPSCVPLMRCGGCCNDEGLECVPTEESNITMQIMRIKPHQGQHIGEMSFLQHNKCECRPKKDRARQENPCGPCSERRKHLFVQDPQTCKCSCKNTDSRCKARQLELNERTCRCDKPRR
The data set can be described thus: cell_activity; KDR phosphorylation; >50% at 100 nM with VEGF-A121. To be noted: tags: glycan-biotinylated for SPR/FRET/AlphaLISA; Acro BioSystems, R&D Systems; chain copies: 2 (inferred). On the procedure:
(§1) Briefly, HEK293 cells engineered to stably overexpress KDR were plated overnight in collagen coated 96 well plates at 50 k cells/well. Aptamers in SB1+ (40 mM HEPES, pH 7.5, 125 mM NaCl, 5 mM KCl, 1 mM MgCl₂) were heated to 90° C. for 3 minutes and allowed to cool to room temperature for a minimum of 10 minutes. […] 15 μL of VEGF-A was added to 15 μL titrated aptamer in a polypropylene plate and diluted to 300 μL with TS buffer (10 mM Tris pH 7.5; 100 mM NaCl; 5.7 mM KCl; 1 mM MgCl₂; 1 mM CaCl₂). The aptamer/VEGF-A mixture was incubated at 37° C. for 30 minutes, after which 100 μL was added to the cells for 5 minutes at 37° C. in 5% CO₂. Treatments were aspirated from cells, and cells were lysed with 100 μL cold lysis buffer [20 mM Tris-HCl, pH 7.5, 150 mM NaCl, 1 mM EDTA, 1% Triton X-100, 0.5 mM sodium orthovanadate (freshly prepared), 1 mM PMSF (freshly prepared), lx protease inhibitor cocktail (freshly prepared)] on ice for 10 minutes. Plates were centrifuged at 4000×g for 10 minutes before transferring the cell lysis to the AlphaLISA® assay plate.
(§2) To perform the AlphaLISA® assay, 10 μL of cell lysis was transferred to a white low volume 384 well Optiplate (Perkin Elmer). […] 10 μL of this reagent mixture was added to the assay plate that contained 10 μL of cell lysate. The assay plate was sealed and incubated in the dark for approximately 2 hours, then was read on a Biotek CYTATION™ 5 plate reader using the Alpha 384 well optical cube. Percent inhibition was calculated by subtracting TS buffer background from each value and normalizing to VEGF-A only controls. The values were fit by using a four-parameter non-linear fit in GraphPad Prism Version 7.0.

The target in data set [2] is T2, VEGF-A121 (Homo sapiens, UniProt P15692 SEQ:1-121). The data set can be described thus: cell_activity; KDR phosphorylation in HEK293-KDR. To be noted: tags: glycan biotinylated in TR-FRET; Biolegend in the cell assay; chain copies: 2. On the procedure: as §1, §2
On the technique in general: Time-resolved FRET reads energy transfer from a long-lived donor to a nearby acceptor.

For data set [3], the target named is T2, VEGF-A121. The data set can be described thus: competition; TR-FRET; also no pKDR inhibition at 100 nM. As to conditions: tags: glycan-biotinylated for SPR/FRET/AlphaLISA; Acro BioSystems, Biolegend; chain copies: 2 (stated). On the procedure:
Briefly, for competition TR-FRET, 2-fold dilutions of thermally equilibrated aptamers were made in TR-FRET Buffer (50 mM MOPS, pH 7.4, 125 mM NaCl, 5 mM KCl, 50 μM CHAPS, 0.1 mg/mL BSA, 1 mM CaCl₂, and 1 mM MgCl₂). 5 μL of aptamer or control solution was added to a 15 μL mix of glycan biotinylated […] (5 nM final), ALEXA FLUOR® 647-labeled Aptamer (30 nM final), and Streptavidin-Eu (Perkin Elmer; 2.5 nM final) in a black wall low volume 384 well plate (Greiner). For control, 5 μl of 1000-fold excess of unlabeled parent aptamer or 5 μl TR-FRET buffer alone was added to the mix of ALEXA FLUOR® 647-labeled aptamer, biotin-VEGF-A, and Streptavidin-Eu. The plate was covered with a plate seal and subsequently incubated in the dark for 1 hour at room temperature. The plate was read on a Biotek CYTATION™ 5 plate reader. Samples were excited at 330 nm and fluorescent values were collected at 665 nm. Data analysis was performed by subtracting the background value and plotting as percent inhibition, normalized to baseline in the absence of competitor. The values were fit by [Inhibitor] vs. response-Variable slope (four parameters) using GraphPad Prism Version 7.0 and then normalized to aptamer control to obtain an IC₅₀ relative to parent aptamer. Data is presented as log values of relative IC₅₀. […]

The target of data set [4] is T1, VEGF-A165. The data set can be described thus: SPR; HBD-binding aptamer. To be noted: tags: glycan-biotinylated for SPR/FRET/AlphaLISA; Acro BioSystems, R&D Systems; chain copies: 2 (inferred). The procedure:
(§3) Aptamer 26 was identical in sequence to Aptamer 4.2 but contained a hexylamine linker in place of the C6 disulfide linker at the 5′ terminus. […] Briefly, in the SPR studies, 1.0-2.5 μg/mL of glycan biotinylated VEGF-A₁₆₅, VEGF-A₁₂₁, and VEGF-A₁₁₀ were diluted in HEPES running buffer (10 mM HEPES, 137.5 mM NaCl, 5.7 mM KCl, 1 mM MgCl₂, 1 mM CaCl₂, and 0.05% Tween20; pH 7.4) and immobilized to a streptavidin dextran chip (GE Healthcare Life Sciences) for 1-2 minutes. The chip was then blocked with 0.2 mg/mL biotin in running buffer, followed by 3 cycles of buffer blanks and regenerated with 50 mM NaOH to equilibrate the chip. […] After coating and blocking, samples were screened at 100 nM in duplicate injections at a flow rate of 25 μL/min, with an association time of 3 minutes 20 seconds and a dissociation time of 10 minutes. Regeneration conditions of chips were optimized based on the protein immobilized and effected with either 50 mM NaOH for 30 seconds or 2M guanidine HCl for 2×40 seconds.
(§4) Data was fit to a 1:1 kinetic binding model.
On the technique in general: In SPR one partner is held on a chip, and binding of the other changes the refractive index at the surface.

The target of data set [5] is T1, VEGF-A165. The data set can be described thus: cell_activity; partial (~80%) inhibition of KDR phosphorylation; no inhibition of KDR binding in AlphaLISA. As to conditions: tags: glycan-biotinylated for SPR/FRET/AlphaLISA; Acro BioSystems, R&D Systems; chain copies: 2 (inferred). On the procedure: as §1, with “Plates were centrifuged at 4000×g for 10 minutes before transferring the cell lysis to the AlphaLISA® assay plate.” left out
To perform the AlphaLISA® assay, 10 μL of cell lysis was transferred to a white low volume 384 well Optiplate (Perkin Elmer). […] The assay plate was sealed and incubated in the dark for approximately 2 hours, then was read on a Biotek CYTATION™ 5 plate reader using the Alpha 384 well optical cube. Percent inhibition was calculated by subtracting TS buffer background from each value and normalizing to VEGF-A only controls. […]
On the technique in general: In Alpha technology, singlet oxygen from a donor bead excites a nearby acceptor bead.

Data set [6] has as its target T2, VEGF-A121. The data set can be described thus: SPR; no binding at highest concentration (500 nM). As to conditions: tags: glycan-biotinylated for SPR/FRET/AlphaLISA; Acro BioSystems, Biolegend; chain copies: 2 (stated). On the procedure:
as §3, §4

Data set [7] deals with VEGF-A110 (Homo sapiens, UniProt P15692 SEQ:1-110). The data set can be described thus: SPR; no binding at highest concentration (500 nM). To be noted: tags: glycan-biotinylated; chain copies: 2 (stated). The procedure:
as §3, §4

In data set [8] the target is T2, VEGF-A121. The data set can be described thus: competition; TR-FRET. To be noted: tags: glycan-biotinylated for SPR/FRET/AlphaLISA; Acro BioSystems, Biolegend; chain copies: 2 (stated). On the procedure:
Briefly, for competition TR-FRET, 2-fold dilutions of thermally equilibrated aptamers were made in TR-FRET Buffer (50 mM MOPS, pH 7.4, 125 mM NaCl, 5 mM KCl, 50 μM CHAPS, 0.1 mg/mL BSA, 1 mM CaCl₂, and 1 mM MgCl₂). 5 μL of aptamer or control solution was added to a 15 μL mix of glycan biotinylated […] (5 nM final), ALEXA FLUOR® 647-labeled Aptamer (30 nM final), and Streptavidin-Eu (Perkin Elmer; 2.5 nM final) in a black wall low volume 384 well plate (Greiner). For control, 5 μl of 1000-fold excess of unlabeled parent aptamer or 5 μl TR-FRET buffer alone was added to the mix of ALEXA FLUOR® 647-labeled aptamer, biotin-VEGF-A, and Streptavidin-Eu. The plate was covered with a plate seal and subsequently incubated in the dark for 1 hour at room temperature. The plate was read on a Biotek CYTATION™ 5 plate reader. Samples were excited at 330 nm and fluorescent values were collected at 665 nm. Data analysis was performed by subtracting the background value and plotting as percent inhibition, normalized to baseline in the absence of competitor. The values were fit by [Inhibitor] vs. response-Variable slope (four parameters) using GraphPad Prism Version 7.0 and then normalized to aptamer control to obtain an IC₅₀ relative to parent aptamer. Data is presented as log values of relative IC₅₀.
Starting at position 6, 2′F-G residues were systematically replaced, one at a time, and the activity of the resultant molecule was assessed by competition TR-FRET, as described in Example 7, against the parent molecule, Aptamer 141.

B1: Aptamer 29 (ssRNA)
RNA: UAGUCCGCCUCCGCGCGGAGGGGUUUCAUUAUCCCGUUUGGCGGCUUU
modifications: all G 2'-F; A,C,U 2'-OMe; 5' C6NH2; 3' idT
In data set [1], B1 had an activity of more than 50 % inhibition at 10 nM.

B2: Aptamer 29 (ssRNA)
RNA: B1 RNA
modifications: 2'-F G; 2'-OMe A,C,U; 5' C6NH2; 3' idT
In data set [2], B2 returned an activity of more than 50 % inhibition at 100 nM.

B3: Aptamer 31 (ssRNA)
RNA: B1 RNA with U4A
modifications: all G 2'-F; A,C,U 2'-OMe; 5' C6NH2; 3' idT
In the case of B3, in data set [1], the activity was more than 50 % inhibition at 10 nM.

B4: Aptamer 31 (ssRNA)
RNA: B1 RNA with U4A
modifications: 2'-F G; 2'-OMe A,C,U; 5' C6NH2; 3' idT
Turning to B4, the activity in data set [2] is more than 50 % inhibition at 100 nM.

B5: Aptamer 32 (ssRNA)
RNA: B1 RNA with U4G, U46C
modifications: all G 2'-F; A,C,U 2'-OMe; 5' C6NH2; 3' idT
In turn, B5 showed an activity in data set [1] of more than 50 % inhibition at 10 nM.

B6: Aptamer 32 (ssRNA)
RNA: B1 RNA with U4G, U46C
modifications: 2'-F G; 2'-OMe A,C,U; 5' C6NH2; 3' idT
Take B6: the activity in data set [2] was more than 50 % inhibition at 100 nM.

B7: Aptamer 27 (ssRNA)
RNA: B1 RNA with U4G, A19G
modifications: all G 2'-F; A,C,U 2'-OMe; 5' C6NH2; 3' idT
For the molecule B7, in data set [3], the binding signal was > 100 fold worse IC50 vs Aptamer 26.

B8: Aptamer 7 (ssRNA)
RNA: CGGAAUCAGUGAAUGCUUAUACAUCCG
modifications: 2'-F C and U; 2'-OMe G and A except AA at positions 4-5; 5' C6NH2; 3' idT
B8 registered a dissociation constant (Kd) in data set [4] of 0.6 nM. Moreover, the 50% inhibitory concentration (IC50) in data set [5] came out at 2.2 nM. For the same molecule, the binding result in data set [6] and in data set [7] was “no binding” in each case.

B9: Aptamer 199 (ssRNA)
RNA: GCCGACCCGCGCGGAGGGGUUUCAUUACCCCGUUUGUCGGC
modifications: all G 2'-F; A,C,U 2'-OMe; Sp3 joins the two parts; 5' C6NH2; 3' idT
For the molecule B9, the binding signal in data set [8] was ~2 fold better IC50 vs Aptamer 141.

B10: Aptamer 196 (ssRNA)
RNA: AGGCCGACCCGCGCGGAGGGGUUUCAUUAUCCCGUUUGUCGGCUU
modifications: G 2'-F except G22 2'-OMe; A,C,U 2'-OMe; Sp3 joins the two parts; 5' C6NH2; 3' idT
As for B10, the binding signal in data set [8] is ~2 fold better IC50 vs Aptamer 141.

B11: Aptamer 198 (ssRNA)
RNA: B10 RNA
modifications: G 2'-F except G39 2'-OMe; A,C,U 2'-OMe; Sp3 joins the two parts; 5' C6NH2; 3' idT
As to B11, in data set [8], the binding signal is ~2 fold better IC50 vs Aptamer 141.
